Measured values from publication PMC5309781.

Experiments:
[1] = target: ZIKV NS1 β-ladder domain (NS1 172-352), strain Suriname (Zika virus, strain Suriname); experiment: AUC; sedimentation velocity, 2.95 mg/mL, 20 mM Hepes pH 7.4, 150 mM NaCl, 20 °C, 53,000 rpm, interference optics, continuous c(s) model in SEDFIT
[2] = target: ZIKV NS1 β-ladder domain (NS1 172-352) T233A mutant (Zika virus, strain Suriname); experiment: as above

Row | Substance | percent of the protein in the monomeric state [1] | stoichiometry N [1] | percent of the protein in the monomeric state [2] | stoichiometry N [2]
1 | ZIKV NS1 β-ladder domain (NS1 172-352), strain Suriname (domain or fragment) | 7.8% | 2 |  | 
2 | ZIKV NS1 β-ladder domain (NS1 172-352) T233A mutant (domain or fragment) |  |  | > 49% | 2
